Consider one molecule from patent publication US20050130130A1 (INSTITUT NATIONAL DE LA SANTE ET DE LA RECHERCHE MEDICALE …, published 2005).

For this test, the target named is T1, p50.2 KAR (human, UniProt P43631 22-304).
T1 construct: whole, on cells; also called KAR of D.F. NK cells; KAR p50.2
The experiment in a line: anti-CD158 immunoprecipitation from NK cell lysates, immunotransfer with anti-FcεRIγ.

T1 sequence (P43631 22-304): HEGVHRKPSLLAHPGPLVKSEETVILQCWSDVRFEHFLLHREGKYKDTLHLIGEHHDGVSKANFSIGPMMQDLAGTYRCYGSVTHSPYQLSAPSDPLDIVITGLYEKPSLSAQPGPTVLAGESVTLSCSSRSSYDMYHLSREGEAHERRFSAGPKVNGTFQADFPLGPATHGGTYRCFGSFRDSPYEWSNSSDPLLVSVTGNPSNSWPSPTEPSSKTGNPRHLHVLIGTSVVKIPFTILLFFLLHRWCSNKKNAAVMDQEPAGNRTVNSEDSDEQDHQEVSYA

B1: FcεRIγ (other, human, UniProt P30273 19-86, looked up)
chain: LGEPQLCYILDAILFLYGIVLTLLYCRLKIQVRKAAITSYEKSDGVYTGLSTRNQETYETLKHEKPPQ
notes: whole, on cells; Endogenous protein in NK cell lysates; also called FcεRI gamma
For the molecule B1, the binding result was “no binding”.
